This is an account of results in the nanobody polyreactivity screen of Harvey et al. (2022).

The data set is described as follows: yeast display, Sf9 membrane polyspecificity reagent, FACS + sequencing; frameworks hold sequencing errors. The essentials: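 Genes from sorted yeast were amplified by colony PCR, read by MiSeq 2 × 250 sequencing and filtered on CDR length. These cells carried a synthetic nanobody library in Saccharomyces cerevisiae BJ5465 and were sorted by FACS into low and high (top ~1%) gates on anti-HA and streptavidin fluorescence. Polyreactivity is labelled according to the gate of origin.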
Regarding “QVQLVESGGGLVQAGGSLRLSCAAYGNIIYYNAMGWYRQATGKERELVASITWSGGSTYYADSVKGRFTISRDNAKNTVYLQMNSLKPEDTAVYYCAAGYSPPKPYSGGYYYWGQGTQVTVSS”, the “polyreactivity (PSR sort gate)” value is on record as “low polyreactivity”.
As for “QVQLVESGGGLVQAGGSLRLSCAASGFTFGSYAMGWYRQAPGKEREFVAAISLGGARTYYADSVKGRFTISRDNAKNTVYLQMNSLKPEDTAVYYCNARGIGRSTKWSSRDYWGQGTQVTVSS”, the “polyreactivity (PSR sort gate)” value is “high polyreactivity”.
With “QVQLVDSGGALVQAGGSLRLSCAASGRTFRPNAMGWYRQAPGKERELVAVISWRGGRTYYADYVKGRFTISRDIAKNTVYLQMNSLKPEDTAVYYCGARVYLSGYGYNYWGQGTHVTVSS”, the “polyreactivity (PSR sort gate)” value is given as “high polyreactivity”.
Take “QVQLVESGGGLVQAGGSLRLSCAASGITFYVNAMGWYRQAPGKERELVAGIDSGGSTYYADSVKGRFTISRDNAKNTVYLQMNSLKPEDTAVYYCAARGSDYIRWYVGGRYGYWGQGTQVTVSS”: the “polyreactivity (PSR sort gate)” value was “low polyreactivity”.
For “QVQLVESGGGLVQAGGSLRLSCAASGRIFSRNAMGWYRKAPGKERELVATISAGGGRTSYADSVKGRFTISRDNAKNTVYLQMNSLKPEDTADYYCAARGQVGYYWGQGTQVTVSS”, the “polyreactivity (PSR sort gate)” value was “high polyreactivity”.
As to “QVQLVESGGGLVQAGGSLRLSCAASVFIFAIYAMGWYRQAPGKERELVADINSDGSTYYADSVKGRFTISRDNAKNTVYLQMNSLKPEDTAVYYCNAETAGHDMDYWGQGTQVTVSS”, the “polyreactivity (PSR sort gate)” value is listed as “low polyreactivity”.
As to “QVQLVESGGGLVQAGGSLRLSCAASGSIFYDYAMGWYRQAPGKERELVAAISGRGGSTYYADSVKGRFTISRDNAKNTVYLQMNSLKPEDTAVYYCAARYRYRFLDRYNYWGQGTQVTVSS”, the “polyreactivity (PSR sort gate)” value is listed as “high polyreactivity”.
Consider “QVQLVESGGGLVQAGGSLRLSCAASGSISYFNAMGWYRQAPGKERELVAAITSGGSTYYADSVKGRFTISLDNAKNTVYLQMNSLKPEDTAVYYCNAPLEWGVYAAQNWDDGYWGQGTQVTVSS”, for which the “polyreactivity (PSR sort gate)” value is on record as “low polyreactivity”.
On to “QVQLVESGGGLVQAGGSLRLSCAASGSTFYPYAMGWYRQAPGKERELVAAITSGGRTYYADSVKGRFTISRDNAKNTVYLQMNSLKPEDTAVYYCAAVYINRLTSKYEYWGQGTQVTVSS”, for which the “polyreactivity (PSR sort gate)” value is listed as “high polyreactivity”.
As to “QVQLVESGGGLVQAGGSLRLSCAASGRTISINAMGWYRQAPGKERELVADISKSGGRTYYADSVKGRFTISRDNAKNTVYLQMNSLKPEDTAVYYCAKGAYYVPVIYHAVYSWGQGTQVTVSS”, the “polyreactivity (PSR sort gate)” value was “low polyreactivity”.
For “QVQLVESGGGLVQAGGSLRLSCAASGRIFGWYAMGWYRQAPGKERELVAAISYSGGSTYADSVKGRFTISRDNAKYTVYLQMNSLKPEDTAVYYCAAYSSYYVHRFQHYDYWGQGTQVTVSS”, the “polyreactivity (PSR sort gate)” value was “high polyreactivity”.
As to “QVQVVESGGGLVQAGGSLRLSCAASGLISWLYVMGWYRQAPGKERELVAAIRYSGGRTYYADSVKGRFTISRDNAKNTDYLQMHSLKPEDTAVYYCNALPWALYDSTSIYYYWGQGTQVTVSS”, the “polyreactivity (PSR sort gate)” value is given as “low polyreactivity”.
In the case of “QVQLVESGGGLVQAGGSLRLSCAASGLTIWRYAMGWYRQAPGKETEFVASISQNGGRTDYADSVKGRFTISRDNAKNTVYLQMNSLKPEDTAVYYCAARRYYGVYYAFYFWRQGTQVTVSS”, the “polyreactivity (PSR sort gate)” value is “high polyreactivity”.
On to “QVQLVESGGGLVQAGGSLRLSCAASGSTFGYYTMGWYRQAPGKERELVAAISYSGGRTFYADSVKGRFTISRDNAKNTVFLQMHCLKPEDTAVYYCNNRYIPSFLSHLDYWGQGTHVTVSS”, for which the “polyreactivity (PSR sort gate)” value is recorded as “high polyreactivity”.
Turning to “QVQLVESGGGLVQAGGSLRLSSAPSGNTFYWYVMGWYRHAPGKERELVARINSSGGTTNYADSVKGRFTISRDNAKNTVYFQMNSLKPEVTAVYYCAADDIYLYGGGTDYYFCGQGTQVTVSS”, the “polyreactivity (PSR sort gate)” value is recorded as “low polyreactivity”.
As to “QVQLVESGGGLVQAGGSLRLSCDASGITFQYYAMGWYRQAPGKERELVAAINWRGGTTYYADSVKGRITISRDNAKNTVYLQMNSLIPEDNEVYYCAADYYYQAGFYYWGQGTQVTVSS”, the “polyreactivity (PSR sort gate)” value is recorded as “low polyreactivity”.
For the sequence “QVQLVESGGGLVQAGGSLRLSCAASGRTFGGNAMGWYRQAPGKERELVAAISLSGGTTYYADSVKGRFTISRDNAKNTVYLQMHSLKPEDTAVYYCAARFKSVDYVQYYYWGQGTQVTVSS”, the “polyreactivity (PSR sort gate)” value is listed as “low polyreactivity”.
On to “QVQLVESGGGLVQAGGSLRLSCAASGSIFGVYDMGWYRQAPGKEREVVAVINSNGGSTYYADSVKGRFTISRDNAKNTVYLQMNSLKPEDTAVYYCAADYQSYVYIGYGYWGQGTQVTVSS”, for which the “polyreactivity (PSR sort gate)” value was “low polyreactivity”.
For the sequence “QVQLVESGGGLVQAGGSLRLRSAASGSIYNQNAMGWYRQAHGNRELVAAITNGVSTDYADSVKGRFTISRDNAKNTVYLKLNSLKPEDTAVYYCNAGNYQYPSFEYDYWGLGTQVTVSS”, the “polyreactivity (PSR sort gate)” value is “low polyreactivity”.
Then “QVQHVESGGGLVQAGGSLRLSCAASGSTFYHNAMGWYRQAPGKERELVAAITSGTSTYYADSVKGRFTISRDNAKNTVYLHMNSLKPEDTAVYYCAADSPWGGGYFVLYNYWGQGTQVTVSS”, with “low polyreactivity”; and “QVQLVESGGGLVQAGGSLRLSCAASGSIFPFYALGLYSQAPGTDRELVAGISNGDSPNYADSVKGRFTIARDNAKNSVYLQLNSLKPEDTGVYYCATDLPGGRYYGPYDYWGQGTQGTVSS”, with “low polyreactivity”.
As to “QVQLVESGGGLVQAGGSLRLSCAASGRIFSYTAMGWYRQAPGKERELVAAITRVDNTNYADSVKGRFTISRDNAKNTVYLQMNSLKPEDTAVYYCNARQHQVRWWLREFDYWGQGTQVTVSS”, the “polyreactivity (PSR sort gate)” value is recorded as “low polyreactivity”.
Then “QVQLVESGGGLVQAGGSLRLSCAASGGIFIGYAMGWYRQAPGKERELVAAISYSGGSTYYADSVKGRFTISRDNAKNTVYLQMNSLKPEDTAVYYCAAQVDRKYRWFNSWGQGTQVTVSS”, with “high polyreactivity”.
On to “QVQLLESGGGLVQAGGSLRLSCAASGRIFGYYAMGWYRQAPGKERELVASISWSGGSTYYADSVKGRFSISRDNAKNTVYLQMNSLKPEDTAVYYCAAKRSFLSTIGNYDYWGQGTQVTVSS”, for which the “polyreactivity (PSR sort gate)” value is “high polyreactivity”.
With “QVQLVESGGGLVQAGGSLRLSCAASGGIFGKYVMGWYRQAPGKERELVAGISRSAGITYYADSVKGRFTISRDNAKHTVYLQMNSLIPEDTAVYYCNARAWSYPSYHVGYDYWGQGTQVTVSS”, the “polyreactivity (PSR sort gate)” value is reported as “high polyreactivity”.
Consider “QVQLVESGGGLVQAGGSLRLSCAASGSTFEVYAMGWYRQAPGKERELVAAINSRGTSTYYADSVKGRFTISRDNAKNTVYLQMNSLKPEDTAVYYCNAVRDWGPSQVYDGMDYWGQGTQVTVSS”, for which the “polyreactivity (PSR sort gate)” value was “low polyreactivity”.
“QVQLVESGGGLVQAGGSLRLSCAASGIIFAYYAMGWYRQAPGKERELVAAISRSGGITYYADSVKGRFTISRDNAKNTVYLQMNSLKPEDTAAYYCARYSCRPYDYWGQGTQVTVSS”: the “polyreactivity (PSR sort gate)” value is on record as “high polyreactivity”.
Then “QVQLVESGGGLVQAGGSLRLSCAASGSTFAYYVMGWYRQAPGKERELVAAISRGGRTYYADSVKGRFTISRDNAKNTVYLQMNSLKPEDTAVSYCAKPYHQRSAKVDYWGQGTQVTVSS”, with “low polyreactivity”; and “QVHQQESGGDLEQAGGSLRLSCTASGTISDVRFMGWYRQAPGKERELVATISYVTITYYADSVKGRFTISRDSEKHRVSADDEHETGRYRGVFLLYYWGLGTQVTVSS”, with “low polyreactivity”.
With “QVQLVESGGGLVQAGGSLRLSCAASGITFWYYAMGWYRQAPGKERELVAVISRGGSTYYADSVKGRFTISRDNAKNTVYLQMNSLKPEDTAVYYCAARPRWYTYTRQEYDYWGQGTQVTVSS”, the “polyreactivity (PSR sort gate)” value was “high polyreactivity”.
Then “QVQLVESGGGLVQAGGSLRLSCAASGSIFWRNTMGWYRQAPGKEREFVAAISSNGGGTYYADSVKGRFTISRDKAKNTVYLQTNSLKPEDTAVYYFAATAGGSYKLWYYYWGQGTQVTVSS”, with “high polyreactivity”.
Take “QVQLVESGGGLVQAGGSLRLSCAASGLILDGYAMGWYRQAPGKERELVAAITRSGGRTYYADSVKGRFTISRDNAKNTVYLQMKSLKPEDPAVYYCAALGWSGRYRYDYWGQGTQVTVSS”: the “polyreactivity (PSR sort gate)” value was “high polyreactivity”.
As to “QVQLVESGGGLVQAGGSLRLIFAASGRTFVLNAMRWYRQAPGKEREFVAAISWGGVRTYYADSVKGRFTISRDNAKNTVYLQMNSLKPEDTAVYYCATCGSRYRRYDYWGQGTQVTVSS”, the “polyreactivity (PSR sort gate)” value is “high polyreactivity”.
Turning to “QVQLVESGGGLVQAGGSLRLSCAASGSIFYVYVMGWYRQAPGKERELVAAIDTGGGDTYYADSVKGRFTISRDNAKNTVYLQMNSLKPEDTAVYYCAAELYDYGDLYYSEYDYWGQGTQVTVSS”, the “polyreactivity (PSR sort gate)” value is listed as “low polyreactivity”.
As for “QVQLVESGGGLVQAGGSLRLSCAASGIIFRTYAMGWYRQAPGKERELVAAISGTTGSKYYADSVKGRFTISRDNAKNTVYLQMNSLKPEDTAVYYCAADFYWYIRYDYWGQGTQVTVSS”, the “polyreactivity (PSR sort gate)” value was “low polyreactivity”.
Consider “QVLLQETGGGLVQAGGSLRLSCAASGTISTDIRMGWYRLAPGKESEFVASIDCCSTTYYADSVKGRFTISRDNAKYTVYLQMNSLKPEDTAMYYCAAREATEFYLYYWGQGTQVTVSS”, for which the “polyreactivity (PSR sort gate)” value is given as “low polyreactivity”.
Regarding “QVQLVESGGGLVQAGGSLRLSCAASGITFDNNAMGWYRQAPGKEREFVADIDGSGGSTYYADSVKGRFTISRDNAKNTVYLLMNCLKPEDTAVYYCAVVVYYYTYHYWGQGTQVTVSS”, the “polyreactivity (PSR sort gate)” value is “low polyreactivity”.
Take “QVQLVESGGGLVQAGGSLRFSCAASGFTFRKNAMGWYRQAPGKERELVAAISRRGGRTYYADSVKGRFTISRDNAKNTVYLQMNSLKPEDTAVYYCNADEYGGSTGRKGRYNYWGQGTQVTVSS”: the “polyreactivity (PSR sort gate)” value is on record as “low polyreactivity”.
As for “QVQLVESGGGLVQAGGRLRLSCAASGSTFVPYAMGWSRQAPGKERELVAGITWSGGRTYYADSVKGRFTISRDNAKNTVYFQLNSLKPEDTAVYYCNVEHLVYKYDGYYSRYYRLYYWGQGTHVTVSS”, the “polyreactivity (PSR sort gate)” value is “low polyreactivity”.
Regarding “QDQLVESAGGLVQAGGSLRLSCAASGRTFYFYTMGWYRQAPGKESELVATAITSGGSTNYADSVKGRFTISRDNAKNTVYLQMNSLKPEDTAVYYCAAVPTEFGNRLEYDYWGQGTQVTVSS”, the “polyreactivity (PSR sort gate)” value is on record as “low polyreactivity”.
Turning to “QDQLVESGVGIVQAGRSLRLSCAASGFTFSGYAMGWDRQAPGKERELVAAINWRGDSTYYADSVKGRFTISRDNAKNTVYLQMNSLKPEDTAVYYCNVVLGPQRYSTDYGYWGQGTQVTVSS”, the “polyreactivity (PSR sort gate)” value is recorded as “high polyreactivity”.
